Measured values: US20190169249A1 (SHATTUCK LABS, published 2019)

Assays:
[1] = target: T1, murine CD40 overexpressed on CHO-K1 cells (CHOK1/CD40) (murine, UniProt P27512 20-289); test: flow cytometry on CHOK1/CD40 cells; CHOK1/CD40 cells, flow cytometry
T1 construct: whole, on cells; also called mCD40
T1 sequence (looked up): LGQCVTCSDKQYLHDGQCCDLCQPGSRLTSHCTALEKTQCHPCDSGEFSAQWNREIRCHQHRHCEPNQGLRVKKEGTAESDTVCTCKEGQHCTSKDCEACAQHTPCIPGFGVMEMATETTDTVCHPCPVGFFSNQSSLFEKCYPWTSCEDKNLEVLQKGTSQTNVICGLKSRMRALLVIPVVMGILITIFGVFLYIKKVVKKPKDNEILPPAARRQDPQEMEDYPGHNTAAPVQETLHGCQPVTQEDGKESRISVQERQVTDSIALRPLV
Description: For cell binding assays, immortalized cell lines were engineered to stably express CD40 (CHOK1/CD40). Increasing concentrations of the murine CSF1R-Fc-CD40L chimeric protein were incubated with the over-expressing (CHOK1/CD40) cell line for 2 hours. Cells were collected, washed, and stained with antibodies for the detection of chimeric protein binding by flow cytometry.
As a negative control, there was no detectable binding to the parental (non-CD40 expressing) CHOK1 cell line.

CD40-His = target: T2, CD40-His (human, UniProt P25942 21-193); test: bio-layer interferometry (Octet); ligand column: hCD40-his
T2 construct: Octet (biolayer interferometry) reagent; also called recombinant human CD40; not shown: His tag

[2] = target: T3, CSF1R-Fc (commercially available, single-sided control protein) (UniProt P07333 20-512, limits assumed); test: SPR, BioRad ProteOn XPR 360
T3 construct: Recombinant control protein; not shown: Fc part of the bought protein; not described
Description: The binding affinity of the different domains of the hCSF1R-Fc-CD40L chimeric protein was measured by the surface plasmon resonance (SPR) using the BioRad ProteOn XPR 360 system. Specifically, the affinity of the chimeric protein for human CSF1 and CD40 was determined and compared to recombinant control proteins, and the results are shown in the Table below: […]

T3 sequence (P07333 20-512 limits assumed): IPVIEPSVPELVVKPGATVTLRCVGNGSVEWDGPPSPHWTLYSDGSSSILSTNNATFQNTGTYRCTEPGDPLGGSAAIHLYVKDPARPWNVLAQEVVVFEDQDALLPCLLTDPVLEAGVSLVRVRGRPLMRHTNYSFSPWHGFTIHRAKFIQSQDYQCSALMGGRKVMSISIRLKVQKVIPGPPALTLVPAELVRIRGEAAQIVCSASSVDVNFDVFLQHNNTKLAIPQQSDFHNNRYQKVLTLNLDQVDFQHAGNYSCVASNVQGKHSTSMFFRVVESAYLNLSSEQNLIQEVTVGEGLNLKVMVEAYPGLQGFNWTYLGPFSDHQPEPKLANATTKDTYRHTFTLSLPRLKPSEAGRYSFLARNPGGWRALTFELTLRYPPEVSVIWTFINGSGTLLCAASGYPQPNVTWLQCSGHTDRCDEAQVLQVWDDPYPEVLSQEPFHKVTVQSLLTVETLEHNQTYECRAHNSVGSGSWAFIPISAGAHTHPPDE
T2 sequence (P25942 21-193 limits assumed): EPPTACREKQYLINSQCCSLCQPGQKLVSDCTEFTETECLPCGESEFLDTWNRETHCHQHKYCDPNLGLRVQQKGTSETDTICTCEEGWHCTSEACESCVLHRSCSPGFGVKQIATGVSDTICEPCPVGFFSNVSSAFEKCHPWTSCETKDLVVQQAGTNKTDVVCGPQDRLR

B1: murine CSF1R-Fc-CD40L chimeric protein (Fc fusion)
chain (part 1 of 2): APVIEPSGPELVVEPGETVTLRCVSNGSVEWDGPISPYWTLDPESPGSTLTTRNATFKNTGTYRCTELEDPMAGSTTIHLYVKDPAHSWNLLAQEVTVVEGQEAVLPCLITDPALKDSVSLMREGGRQVLRKTVYFFSPWRGFIIRKAKVLDSNTYVCKTMVNGRESTSTGIWLKVNRVHPEPPQIKLEPSKLVRIRGEAAQIVCSATNAEVGFNVILKRGDTKLEIPLNSDFQDNYYKKVRALSLNAVDFQDAGIYSCVASNDVGTRTATMNFQVVESAYLNLTSEQSLLQEVSVGDSLILTVHADAYPSIQHYNWTYLGPFFEDQRKLEFITQRAIYRYTFKLFLNRVKASEAGQYFLMAQNKAGWNNLTFELTLRYPPEVSVTWMPVNGSDVLFCDVSGYPQPSVTWMECRGHTDRCDEAQALQVWNDTHPEVLSQKPFDKVIIQSQLPIGTLKHNMTYFCKTHNSVGNSSQYFRAVSLGQSKQLPDESLFTP
chain (part 2 of 2): HRRLDKVEEEVNLHEDFVFIKKLKRCNKGEGSLSLLNCEEMRRQFEDLVKDITLNKEEKKENSFEMQRGDEDPQIAAHVVSEANSNAASVLQWAKKGYYTMKSNLVMLENGKQLTVKREGLYYVYTQVTFCSNREPSSQRPFIVGLWLKPSSGSERILLKAANTHSSSQLCEQQSVHLGGVFELQAGASVFVNVTEASQVIHRVGFSSFGLLKL
notes: 'constructed as described above in the Detailed Description and in U.S. 62/464,002'; also called mCSF1R-Fc-CD40L; mCD115-Fc-CD40L; not shown: Fc linker
EC50 [1]: 91.1 nM

B2: CD40L-Fc (commercially available, single-sided control protein) (Fc fusion, UniProt P29965 113-261, looked up)
chain: MQKGDQNPQIAAHVISEASSKTTSVLQWAEKGYYTMSNNLVTLENGKQLTVKRQGLYYIYAQVTFCSNREASSQAPFIASLCLKSPGRFERILLRAANTHSSAKPCGQQSIHLGGVFELQPGASVFVNVTDPSQVSHGTGFTSFGLLKL
notes: Recombinant control protein; not shown: Fc part of the bought protein
Kd (CD40-His): 2.42 nM

B3: recombinant human CSF1 protein (ligand, UniProt P09603 33-190, looked up)
chain: EEVSEYCSHMIGSGHLQSLQRLIDSQMETSCQITFEFVDQEQLKDPVCYLKKAFLLVQDIMEDTMRFRDNTPNAIAIVQLQELSLRLKSCFTKDYEEHDKACVRTFYETPLQLLEKVKNVFNETKNLLDKDWNIFSKNCNNSFAECSSQDVVTKPDCN
notes: the construct is not described
Kd [2]: 0.275 nM | koff [2]: 0.000335 s⁻¹ | kon [2]: 1.22e+06 M⁻¹ s⁻¹
